B1: HDV Ribozyme (parent)
chain: GGCCGGCAUGGUCCCAGCCUCCUCGCUGGCGCCGGCUGGGCAACAUUCCGAGGGGACCGUCCCCUCGGUAAUGGCGAAUGGGACCCA

In the series the parent is B1. Nature of the series: self-cleavage, relative activity (ratio to wild type); higher = more cleavage; co-transcriptional.
As for C30U C84G, the self-cleavage was 0.306.

For C30U C84U, the self-cleavage worked out at 0.319.

For C30U C84A, the self-cleavage came out at 0.252.

Take C30G G34C: the self-cleavage worked out at 0.107.

As to C30G G34U, the self-cleavage was determined as 0.0449.

In the case of C30G G34A, the self-cleavage was 0.

Regarding G31U A70U, the self-cleavage is 0.365.

For C30U C66G, the self-cleavage is 0.607.

Consider C30G U47G, for which the self-cleavage was found to be 0.0678.

In the case of G31C U79G, the self-cleavage came out at 0.

As for G31U C57G, the self-cleavage worked out at 0.439.

For the variant C30U C36A, the self-cleavage is 0.193.

For the variant C30U C36G, the self-cleavage was 0.0941.

Consider G31U C32U, for which the self-cleavage is 0.115.

As for G31U C32G, the self-cleavage was found to be 0.0978.

G31A A56G: the self-cleavage came out at 0.369.

For C30G U60C, the self-cleavage was 0.147.

Regarding G31C G74C, the self-cleavage turned out to be 0.106.

Consider G31C G74U, for which the self-cleavage is 0.143.

Take G31A G81C: the self-cleavage turned out to be 0.179.

Turning to C30U C32A, the self-cleavage was determined as 0.155.

For the variant C30U C32G, the self-cleavage amounted to 0.0652.

Consider G31U C64G, for which the self-cleavage worked out at 0.514.

As for G31U C64U, the self-cleavage was 0.475.

For G31C A70C, the self-cleavage stood at 0.266.

Turning to G31U A56C, the self-cleavage was 0.389.

On to G31C C84A, for which the self-cleavage is 0.443.

As for G31A G38C, the self-cleavage came out at 0.142.

Turning to C30G G76U, the self-cleavage came to 0.109.

As for G31A A43G, the self-cleavage turned out to be 0.0386.

On to G31A A43C, for which the self-cleavage was determined as 0.106.

As to C30U G59U, the self-cleavage was 0.831.

Regarding C30U G59C, the self-cleavage turned out to be 0.67.

For G31C U65G, the self-cleavage stood at 0.48.

Take G31C U65A: the self-cleavage was 0.394.

Regarding G31U C49A, the self-cleavage is 0.451.

As for G31A C36A, the self-cleavage is 0.117.

Consider G31A C36G, for which the self-cleavage was determined as 0.233.

Consider C30U C48G, for which the self-cleavage came to 0.597.

With C30U C48U, the self-cleavage was determined as 0.506.

Regarding C30U C48A, the self-cleavage was determined as 0.739.

G31C C57A: the self-cleavage amounted to 0.282.

For G31C C57G, the self-cleavage came to 0.291.

C30U G73A: the self-cleavage was 0.277.

As to C30U G73C, the self-cleavage was found to be 0.136.

On to C30G G59A, for which the self-cleavage turned out to be 0.0692.

On to G31A C64A, for which the self-cleavage is 0.359.

As to G31A G74A, the self-cleavage was found to be 0.132.

With G31A C75U, the self-cleavage was 0.122.

Consider G31C G39A, for which the self-cleavage turned out to be 0.0554.

On to C30G G31U, for which the self-cleavage is 0.126.

As to C30G G31C, the self-cleavage was determined as 0.104.

Regarding C30G G82U, the self-cleavage was 0.0627.

In the case of G31A G67C, the self-cleavage worked out at 0.513.

For G31A A87C, the self-cleavage is 0.385.

With G31A A87G, the self-cleavage amounted to 0.352.

As for G31A C44G, the self-cleavage is 0.133.

On to G31A C44A, for which the self-cleavage stood at 0.192.

For the variant G31U A87G, the self-cleavage came to 0.323.

For G31U A87C, the self-cleavage was determined as 0.358.

For the variant C30U G54A, the self-cleavage amounted to 0.571.

Take C30U G54C: the self-cleavage was 0.533.

As for C30U C63G, the self-cleavage was 0.47.

G31A G50A: the self-cleavage was determined as 0.626.

As for G31A G50U, the self-cleavage was found to be 0.442.

Regarding C30U A78U, the self-cleavage turned out to be 0.101.

Regarding C30U A78C, the self-cleavage was determined as 0.0978.

For the variant C30U A78G, the self-cleavage is 0.208.

For the variant G31A A71C, the self-cleavage worked out at 0.251.

On to G31A A71G, for which the self-cleavage came to 0.432.

For G31A A71U, the self-cleavage was found to be 0.447.

With C30U U60A, the self-cleavage turned out to be 0.69.

In the case of C30U U60C, the self-cleavage is 0.831.

For G31A C86G, the self-cleavage was 0.573.

For the variant G31A A45C, the self-cleavage was 0.262.

For the variant G31A A45U, the self-cleavage turned out to be 0.185.

Turning to C30U U65C, the self-cleavage amounted to 0.78.

For the variant C30U U65A, the self-cleavage was 0.689.

C30U U65G: the self-cleavage stood at 0.506.

G31C G81U: the self-cleavage stood at 0.086.

Turning to C30G G50U, the self-cleavage turned out to be 0.0978.

For C30G G50A, the self-cleavage came out at 0.0733.

Turning to C30U C41G, the self-cleavage came out at 0.212.

For the variant C30U C41U, the self-cleavage turned out to be 0.447.

On to G31A G59C, for which the self-cleavage was determined as 0.348.

Consider G31C C61A, for which the self-cleavage is 0.332.

Take G31U C48A: the self-cleavage stood at 0.401.

Turning to C30U G67C, the self-cleavage is 0.649.

Regarding C30U A42U, the self-cleavage amounted to 0.0615.

Regarding G31C A56U, the self-cleavage worked out at 0.305.

As to G31C A56C, the self-cleavage was found to be 0.325.

On to G31A C84U, for which the self-cleavage turned out to be 0.337.

For G31A C84A, the self-cleavage was 0.326.

Take C30U A83U: the self-cleavage was 0.151.

For the variant C30U A83C, the self-cleavage stood at 0.332.

In the case of C30U A83G, the self-cleavage stood at 0.302.

On to G31A G54C, for which the self-cleavage worked out at 0.254.

On to G31A G54U, for which the self-cleavage came out at 0.197.

Consider G31A G54A, for which the self-cleavage came to 0.295.

Take G31A G80A: the self-cleavage was 0.103.

For the variant G31A G80C, the self-cleavage came out at 0.185.

Regarding G31A A70C, the self-cleavage was found to be 0.407.

G31A A70U: the self-cleavage came to 0.101.

Regarding C30U U37A, the self-cleavage turned out to be 0.256.

Take C30U U37C: the self-cleavage was determined as 0.906.

In the case of C30U U37G, the self-cleavage came to 0.

Consider G31A C58U, for which the self-cleavage was 0.399.

In the case of C30U, the self-cleavage was 0.746.

As for C30G G52A, the self-cleavage stood at 0.0287.

Take C30G G52U: the self-cleavage is 0.02.

For C30G G52C, the self-cleavage worked out at 0.133.

Take C30U G38C: the self-cleavage was 0.

Consider C30U G38U, for which the self-cleavage was found to be 0.262.

As to G31C G40U, the self-cleavage was determined as 0.229.

For G31C G40C, the self-cleavage turned out to be 0.0346.

G31A U72G: the self-cleavage is 0.145.

Take G31A U72C: the self-cleavage came to 0.256.

With G31A G40C, the self-cleavage came to 0.144.

For the variant G31A G39U, the self-cleavage was 0.0898.

For the variant G31A G39A, the self-cleavage turned out to be 0.257.

On to G31A A51U, for which the self-cleavage came out at 0.283.

For the variant G31A A51G, the self-cleavage is 0.554.

As to G31A A51C, the self-cleavage came to 0.396.

For the variant C30G G39A, the self-cleavage turned out to be 0.0608.

C30G G39U: the self-cleavage was 0.0692.

Turning to G31C G54U, the self-cleavage amounted to 0.332.

As for C30U A51C, the self-cleavage is 0.594.

As to C30U A51G, the self-cleavage worked out at 0.784.

Regarding C30U A43G, the self-cleavage was determined as 0.0755.

On to C30U A43C, for which the self-cleavage is 0.158.

In the case of G31U A43U, the self-cleavage came to 0.149.

Regarding G31U A43C, the self-cleavage was determined as 0.0504.

As to G31U C44U, the self-cleavage was 0.156.

In the case of G31U C44A, the self-cleavage is 0.0707.

For G31A C85A, the self-cleavage was determined as 0.415.

Consider G31A C85U, for which the self-cleavage amounted to 0.404.

For C30U G52A, the self-cleavage is 0.621.

Consider G31C G34A, for which the self-cleavage came to 0.0963.

With C30U U47A, the self-cleavage worked out at 0.532.

As to C30U U47G, the self-cleavage stood at 0.571.

Regarding C30U G34U, the self-cleavage is 0.135.

For C30U G34C, the self-cleavage stood at 0.0923.

For the variant G31A C33G, the self-cleavage is 0.

Take G31A C33A: the self-cleavage stood at 0.0744.

Regarding G31A C33U, the self-cleavage came to 0.359.

Take C30G G55C: the self-cleavage turned out to be 0.111.

As for G31C G73U, the self-cleavage was 0.0779.

Regarding G31C G73A, the self-cleavage turned out to be 0.0346.

Turning to G31A U37C, the self-cleavage is 0.366.

As for G31A U37G, the self-cleavage was 0.242.

As to C30G G38C, the self-cleavage was 0.0594.

For G31U C84G, the self-cleavage was determined as 0.138.

With G31U C84U, the self-cleavage was determined as 0.363.

G31U C84A: the self-cleavage was 0.146.

Consider C30G G74A, for which the self-cleavage amounted to 0.0733.

As for C30U G68A, the self-cleavage came out at 0.546.

G31U A83G: the self-cleavage amounted to 0.16.

For the variant G31U A83C, the self-cleavage turned out to be 0.0898.

For the variant G31U A83U, the self-cleavage was 0.0627.

As for G31A G55U, the self-cleavage was 0.347.

As to G31C G80A, the self-cleavage was found to be 0.128.

G31C G80U: the self-cleavage is 0.0811.

Turning to C30G G73U, the self-cleavage stood at 0.0845.

Consider C30U C61U, for which the self-cleavage amounted to 0.719.

Turning to G31C C64U, the self-cleavage is 0.324.

In the case of G31C C64G, the self-cleavage turned out to be 0.292.

For G31C C64A, the self-cleavage was 0.148.

For the origin of these results see the RNAGym collection of RNA variant scans (doi:10.7554/elife.80360).
